These results are taken from the domain aggregation screens of Martell et al. (2025).
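Also: 20 min heating vs room temperature control held 20 min.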

This data set in a line: soluble fraction after stress (log2 fold change); higher = more stays soluble; pooled small domains, quantitative proteomics. The note with it: stress: 75 degC.
As to “HMSPSRRENLTAAAKEYFVNTQIRHKTFGNGVIIKRSGNIAAIRFDNGTIKQIDLIAALQAKVLSIL”, the “soluble fraction (log2)” value is -2.71.

On to “HMSPSTNKTFSFSKENISIGQTVFIKKLNQNATVLTLPNKSNQLQVQFGVITMNVKLEDLALPTN”, for which the “soluble fraction (log2)” value is -2.62.

Take “HMSPTSSRAAQARIRKMIESESPLKPISDSQLAARLGEEGISIARRTVAKYREQMNILPASQRRGV”: the “soluble fraction (log2)” value is -0.351.

As to “HMSPVPRIEIELTSSKEDGSWTWRAVGAREPRGSLDGALLAKPAAVGDVLRVETDQFLDGMTVTAILPPRD”, the “soluble fraction (log2)” value is -0.263.

Regarding “HMSQAVEISSVKTQIDGKSYYLHTIKQGQTLYGISKAYGVSVEELTTVNPETSKGLKVGQIIKVPDTKT”, the “soluble fraction (log2)” value came out at 0.395.

In the case of “HMSQDLVVLGDSMLNNALKAFHIDPNAIKKKYWDKLILDYHLKSKEEVLTEIALGKKINVMVAHQLTSIMD”, the “soluble fraction (log2)” value came to 0.051.

Take “HMSQEILSNQSIKDMIELGFEEQTIIDKIQTSTSDFDTTIEELKALKQLGASPTILSAMIKSIKK”: the “soluble fraction (log2)” value was determined as 1.01.

As to “HMSQLDITEARIVVSGGLGMQGPENFKLLEELAKVLGGAVGASRPVVDNGWREYSNQVGQTGKIVAPELYV”, the “soluble fraction (log2)” value was 0.0901.

Turning to “HMSQLETEEAKRIVLKDLLRLYNNYNIIELEEDEFDRFITYLNMPYDFLQKTSDYDLAVSIKRMYASY”, the “soluble fraction (log2)” value was -2.28.

Take “HMSQNISSTKLIPENIKIGMSVFVIPLQQKGIVQSLPNRSKEVLVQIGNAKINVKINNLKLIED”: the “soluble fraction (log2)” value was -0.142.

Turning to “HMSQNTHTIPSREDILGIFRSVNAPLDPQSLGKTLQVHADSMDVLVRRLKAMERDGQLKSDASGVFSLAD”, the “soluble fraction (log2)” value is 0.185.

“HMSQNVQDVFLNHVRKSKNPVTVFLVNGVKLQGIITWFDNFSVLLRREGHTQLVYKHAISTVMPSGPIQLF”: the “soluble fraction (log2)” value turned out to be 0.113.

With “HMSQPALSYAFAKAQGVIVTALGDVAEVARRKGSQPQALAEVRRIAGRPLALREVDDAAFDRLLQDHYARS”, the “soluble fraction (log2)” value was -0.646.

On to “HMSQQMSYSDFVKAVSARQIREAQIQGDKIYATDSTGNRLTIIRLDNDQRLVDDMINNDVNIIGLEE”, for which the “soluble fraction (log2)” value was found to be 0.177.

As for “HMSQSDLASAIGARVTIRLREASGGFRDIVGVLQRFGSGYGELINSKGEALTFSESEIAIWREVKA”, the “soluble fraction (log2)” value was -2.5.

As for “HMSQTELIIVEEEMDGERLDAFLAEQVEQLSRSAVKNLINEGQVLVNGAKQKASYHVREGDEISIEIPEPQ”, the “soluble fraction (log2)” value was found to be 0.836.

In the case of “HMSQTPDLQQERANLGDNADARIEAVDLWANKFFPEEHADAILQIGQTAKGIEALEFIMSKV”, the “soluble fraction (log2)” value was -0.0375.

Take “HMSQVLVRINQDLNIRSGPGAQYDIIAVYRSGAIASVIGTYNNWYKVNFELDSKSYTGWINGTFTSR”: the “soluble fraction (log2)” value is -2.48.

In the case of “HMSQYELEDVEKQRLKFKNGDEKALWLLSDIYKDNSQSYEVRLAALRALSESRHPLIIFDIQSSVK”, the “soluble fraction (log2)” value was -0.527.

As to “HMSRAAQRLFMSQPPLSRHIRQLEDRLGVTLFVRHTRGLTLTEDGQRVLEMVRPLLDLQDKTYAALSQLT”, the “soluble fraction (log2)” value is 0.0487.

Regarding “HMSREMIKSELESISGLGKSGIEKLYTHFINIENIKSASLENIRNIPGISYKVADNIYKHFH”, the “soluble fraction (log2)” value is -0.238.

Take “HMSRLGINTTIEDIKMVGKIIMPLLKQGQSVYQILASHPEIPYSEKTLYSYIEDNIFKDAGIDISVFDL”: the “soluble fraction (log2)” value was -1.32.

Turning to “HMSRLLERARDLMAKPGAWLSAEGGAYALRLSPDRRSRISLTLTETEFRALIDQPGLRVRPGGGWSGRA”, the “soluble fraction (log2)” value was -3.05.

For “HMSRMGDSIKSLRSRNNMSQDALAEKLNVTRQAISNWENSKTQPDADTLKNLGIIFNVTVDEIINNDF”, the “soluble fraction (log2)” value came out at 0.0824.

On to “HMSRQREWIYDYIQSHPDRHMSVEEIYEGLKAENREVSVATVYRNLKILQDENRIASLMLESGKQVFDK”, for which the “soluble fraction (log2)” value is -0.384.

“HMSRREEALIALAQRVARQVARTKQPVTLEPMPANERRVIHVALRDNPDVETRSSGEGDQRRVTVYPRQ”: the “soluble fraction (log2)” value was -0.228.

Regarding “HMSRRIEIELTSSRPDGSWTWRAAGAREPKGVLDGTLLSQGSKPGDVVKAEAEFDIDGITIVSITQ”, the “soluble fraction (log2)” value is -0.405.

Take “HMSRSKLNRLDKIKKMLIAQTGISIKEFSASLNVSEITIRRDLNLLEEQGFIRLVNGVAIYRM”: the “soluble fraction (log2)” value was -1.75.

“HMSRSLEIDVLVKALLEQDRRKFMLVTDGTADVTVRYNNALPSLFREGQGVVAEGLMDNGKFIATNVLAK”: the “soluble fraction (log2)” value is -0.811.

Take “HMSRSLLAALEKLRESHTGSLPASVLSSAQRRSLESFAQTTKSVQMRPSGRGVVFAIINPEVVDKHWRELS”: the “soluble fraction (log2)” value is -0.959.

“HMSRSSQMVNFIRLLSQEKKVSVNSIFSSSVQLSDGIIVKINDFYYRVNLSLDQKTYSLVEVS”: the “soluble fraction (log2)” value is -0.483.

For the sequence “HMSRVKQERLNRFVEAFEAYFRSVHPGEIDVEYLKSDEFGDIFESILHRVMHTASEEKMHRFKKILLNEM”, the “soluble fraction (log2)” value is -2.14.

As to “HMSSADIPFSRFIDDVEAQRVEKVTIDGVNVTGRYRSDGAAFKTIIPSQYDGLVPILRQNKVDITVKDA”, the “soluble fraction (log2)” value came out at 0.24.

For the sequence “HMSSAMDMISRDVRNADSISISTTTYSKKIDLYNFDRNGDIEELHSYSAKNDLGILYNDEPI”, the “soluble fraction (log2)” value was -0.35.

Regarding “HMSSANIKLDPLERQATQQIINNIKRKYPNATIENLQEVANDAIATMRQPEFSNYTVDKFVSYFLSM”, the “soluble fraction (log2)” value is -0.519.

Consider “HMSSARKVTVRGVRELPGIFMEKAEILDDGVRFFYRGEMEKLIGALQGLPIRDLTITEPDLEEVFLHFY”, for which the “soluble fraction (log2)” value is -1.48.

As to “HMSSASETQYELALQAMRDGDNDAALRSLSTALASGFSDWQRIDEEPLLAALANDVRFQVLRSRWK”, the “soluble fraction (log2)” value was found to be 0.0593.

With “HMSSDLVDYLVKYVAIVDNQEIEIADSKIGTAELGTTVSEVAKTVGNYYPKATVLSVKITGRNQEIVFEY”, the “soluble fraction (log2)” value was -2.91.

Turning to “HMSSEPYISLPRGAAHDAYPLSTKAVAAQLGMSEVWLANLRSKGKGPRYVRVGTRVFYSPEDVAQWRRAT”, the “soluble fraction (log2)” value was -1.18.

On to “HMSSESIIIKKLIEEFIHNENKYSPLSDEKLSYLLKNKGFSVARRTVAKYRDELGILSTRERKIKI”, for which the “soluble fraction (log2)” value was -1.76.

With “HMSSEYARFFSGNYYEVLGVAKNASYDEIKAAWKKLVKEYHPDLHPQRQEEFTKIIQKINEAYEYFKKMH”, the “soluble fraction (log2)” value was -0.583.

With “HMSSFFLIDVSQVRIGMYIQLDVGWMRHPFPVNSFRITNQEQLDTLRSLNLAQVRWSPAKSDL”, the “soluble fraction (log2)” value was -3.64.

As for “HMSSFIEAIKQSGTDSLDVIMKNGRVYRYVGIDADRLGYLLEPHQQKLSLEESIGRFYIDYIKGIYEAIE”, the “soluble fraction (log2)” value is -1.47.

As to “HMSSGNLESLLNKLHNEDYFVRLDAVKALGALGDPGAIDYLIEMLSENGIMRGWVANSLAALGEAQWKKII”, the “soluble fraction (log2)” value is -2.22.

As for “HMSSHSAEAVRHRIKSMIDHEARDGDVLSDDRIVELLNQAGIDIARRTVAKYREALRIPSSVERKRRLKA”, the “soluble fraction (log2)” value was -0.163.

“HMSSKRDQFIVLGQEILEKMFKNEGLEFSEKGLLAVMPNFEAESINDIYAKVGEGLISGWDVMKAVYPAY”: the “soluble fraction (log2)” value is -0.311.

For “HMSSKSLAALSPQEYRLLPLVAEGKTNKEIASALALSDKTVKNYLANIFSKLGITRRTQAATLYARAL”, the “soluble fraction (log2)” value is -0.338.

As to “HMSSKYLKIYNDIVGKIDSGIFEANTKLPSESQLMDEYNVSRYTVRKSLNLLEQNGYIEKSKGKGSFVLDM”, the “soluble fraction (log2)” value was -1.

For “HMSSLQFVTLTLMEGHAWVGREIQELLMPPQMRIALIRRGDSQVIPKGSTILESADELILSAIEYQG”, the “soluble fraction (log2)” value is -4.48.

In the case of “HMSSLREQVADALRAHLVSGRMRPGVLYSAPKLAAEFGVSATPVREAMLDLVSEGLVDVVRNKGFRVT”, the “soluble fraction (log2)” value is -0.597.

For the sequence “HMSSPPNPQLAKRYISYSVDDIARLFGIHRHTVREWIKRGLPVIDQQRPLLVQGADLAEFLRKRRA”, the “soluble fraction (log2)” value was -0.948.

Take “HMSSPVIQINTRNDGWIIKLLQPAVEKDVLEGYLADVGLKLQSQMMEKILAAPAGTEFHIKRGSNILTE”: the “soluble fraction (log2)” value is -0.291.

Turning to “HMSSQADEEALFKLLAANPYSDEQLEEIRIAIGSGIAYKDIIRIADIGNTAERMKQLRLEFTKDTAN”, the “soluble fraction (log2)” value is 0.173.

In the case of “HMSSQGSLEKGYSALLDGRLDDAALAYGAALAANPMERDALLGLAYVAHSKGRREEAQALYRKVLR”, the “soluble fraction (log2)” value was -0.303.

With “HMSSSTFVGRVAVITIGEARQNSPAEARFKDRHGTTHYVMVEPMEDVVFKQGDKVLLVESAGATFKVIEPA”, the “soluble fraction (log2)” value is -1.58.

Take “HMSSTSISFNDFQKYWLSNDIKSFQLREDKMTVQGSLKNGTAYETVVPSERLFQFIGQHPKD”: the “soluble fraction (log2)” value is 0.863.

For the sequence “HMSSVDLLSERERQVLARISRGMSNEEIAAELAITPRTVRNHLANIYGKIDVHSRAEAVVWARERGIT”, the “soluble fraction (log2)” value is -0.362.

Turning to “HMSSVEQAILETLSKEHSHLTSLQVFEEIRGRLPAVNQSTVYRALERLVEQGVVSVSDMGTHAAVYE”, the “soluble fraction (log2)” value is -0.197.

With “HMSSVMMPDLTGESAIVAMERLQQLGLLPKVEEVDSYREPGIVLEQLPRAGEKIKRGRIAILKVSS”, the “soluble fraction (log2)” value was -0.0579.

With “HMSSVTGMERFLSSGAVKGIGKTMAARIVEHFGTETMTVLESFPERLAEVPGIGAKKAEAIGQSYSEISD”, the “soluble fraction (log2)” value was determined as 0.158.

As for “HMSSVVARRARIATLVVETSVASQEELGRLLADEGITVTQATLSRDLDALGAVKVLSADGGTRYRIPGQ”, the “soluble fraction (log2)” value was -1.87.

On to “HMSSVVVARTWTDTTGDFKVEAELLGVEGGLVRLKKEDGTVLSVPIAKLSTADRTFLQENQP”, for which the “soluble fraction (log2)” value was 0.00842.

On to “HMSSWEDNFSYWIRNVAETLDKDLLNVANSKLEKIIINAALDQTNGKKNEAAILLGLGRNTLAKKIKELG”, for which the “soluble fraction (log2)” value is -0.799.

Take “HMSSWEEQLKIWAKNELASGNTDILARATVSFEQILIEAALTHTGGRKKTAAELLGWGRNTLTRKIKELHI”: the “soluble fraction (log2)” value stood at 0.0904.

As for “HMSSWEVLAEPIQTVMRRYGVPGAYEKLKEVTRGKSLTAEALHALIRSLDIPQADKERLLALTPAAWA”, the “soluble fraction (log2)” value was -1.34.

In the case of “HMSSYAEVMERSKYLQLHKYKIWKSETDGFWRTYYLNEQGKRKMKKLKHSEDMIDFVIEYVQNNE”, the “soluble fraction (log2)” value was -2.17.

As to “HMSTDDILSSITALRLASVQFQLGQFDPALDSLKLVKEQAWSGAKNILAGDIQLAKGDKEAAKASYQQAQQ”, the “soluble fraction (log2)” value is -0.422.

For the sequence “HMSTDIPFNIFSQKWNADEIDSIVVENNKIEGKTKDNKKFSTYAPDELLTSLMENHKNPNVIVEFRAP”, the “soluble fraction (log2)” value was found to be 0.576.

Take “HMSTDKIDIVSSAILSSLKDNDGFIGLTDKSPPPEIYTAFRVSKKVFKQAIGALYKQRRITLESSGIRLIS”: the “soluble fraction (log2)” value was -0.288.
